Results as given in patent publication US20050084868A1 (published 2005).

T1: carcinoembryonic antigen (UniProt P06731 35-685)
T1 construct: Bought reagent (Biodesign); also called CEA
T1 sequence: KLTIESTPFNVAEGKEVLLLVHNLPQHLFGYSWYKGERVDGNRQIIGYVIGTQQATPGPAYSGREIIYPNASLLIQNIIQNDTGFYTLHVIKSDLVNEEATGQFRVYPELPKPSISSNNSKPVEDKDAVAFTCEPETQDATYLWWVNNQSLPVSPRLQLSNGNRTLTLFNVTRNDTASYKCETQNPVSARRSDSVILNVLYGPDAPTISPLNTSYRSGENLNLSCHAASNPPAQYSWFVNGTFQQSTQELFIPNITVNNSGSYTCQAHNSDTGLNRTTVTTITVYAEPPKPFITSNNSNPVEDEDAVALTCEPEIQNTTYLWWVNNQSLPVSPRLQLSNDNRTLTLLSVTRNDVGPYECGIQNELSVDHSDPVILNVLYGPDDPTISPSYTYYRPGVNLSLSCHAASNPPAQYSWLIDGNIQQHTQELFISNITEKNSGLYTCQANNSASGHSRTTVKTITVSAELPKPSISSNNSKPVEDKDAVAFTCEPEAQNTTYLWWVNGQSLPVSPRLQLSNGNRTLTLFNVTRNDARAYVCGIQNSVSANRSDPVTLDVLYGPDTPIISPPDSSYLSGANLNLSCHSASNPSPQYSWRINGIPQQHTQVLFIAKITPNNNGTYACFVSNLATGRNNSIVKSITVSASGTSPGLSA


Biological target: T1, carcinoembryonic antigen
Assay: plate assay: CEA coated on wells, culture lysate added, bound fusion read by BLA activity on nitrocefin

Row | Binder | binding result
1 | NA05.8 (scFv, Variant of the CAB1 scFv-BLA fusion, tested as crude lysate; Positions are numbered along the whole CAB1 fusion (pME27)) QVKLQQSGAELVKSGTSVKLSCTASGFNIKDSYMHWLRQGPEQGLEWIGWIDPENGDTEYAPKFQGKATFTTDTSSNTAYLQLSSLTSEDTAVYYCNEGTPTGPYYFDYWGQGTTVTVSSGGGGSGGGGSGGGGSENVLTQSPAIMSASPGEKVTITCSASSSVSYMHWYQQKPGTSPKLWIYSTSNLASGVPARFSGSGSGTSYSLTISRMEAEDAATYYCQQRSSYPLTFGGGTKLELKRAATLVSEKQLAEVVANTITPLMKAQSVPGMAVAVIYQGKPHYYTFGKADIAANKPVTPQTLFELGSISKTFTGVLGGDAIARGEISLDDAVTRYWPQLTGKQWQGIRMLDLATYTAGGLPLQVPDEVTDNASLLRFYQNWQPQWKPGTTRLYANASIGLFGALAVKPSGMPYEQAMTTRVLKPLKLDHTWINVPKAEEAHYAWGYRDGKAVRVSPGMLDAQAYGVKTNVQDMANWVMANMAPENVADASLKQGIALAQSRYWRIGSMYQGLGWEMLNWPVEANTVVETSFGNVALAPLPVAEVNPPAPPVKASWVHKTGSTGGFGSYVAFIPEKQIGIVMLANTSYPNPARVEAAYHILEALQ | binds
2 | NA05.6 (scFv, Variant of the CAB1 scFv-BLA fusion (plasmid pME27.1), tested as crude E. coli lysate; also called pNA05.6; parent NA05.6) QVKLQQSGAELVKSGGSVKLSCTASGFNIKDSYMHWLRQGPEQGLEWIGWIDPENGDTEYAPKFQGKATFTTDTSSNTAYLQLSSLTSEDTAVYYCNEGTPTGPYYFDYWGQGTTVTVSSGGGGSGGGGSGGGGSENVLTQSPAIMSASPGEKVTITCSASSSVSYMHWFQQKPGTSPKLVIYSTSNLASGVPARFSGSGSGTSYSLTISRMEAEDAATYYCQQRSSYPLTFGAGTKLELKRAATLVSEKQLAEVVANTITPLMKAQSVPGMAVAVIYQGKPHYYTFGKADIAANKPVTPQTLFELGSISKTFTGVLGGDAIARGEISLDDAVTRYWPQLTGKQWQGIRMLDLATYTAGGLPLQVPDEVTDNASLLRFYQNWQPQWKPGTTRLYANASIGLFGALAVKPSGMPYEQAMTTRVLKPLKLDHTWINVPKAEEAHYAWGYRDGKAVRVSPGMLDAQAYGVKTNVQDMANWVMANMAPENVADASLKQGIALAQSRYWRIGSMYQGLGWEMLNWPVEANTVVETSFGNVALAPLPVAEVNPPAPPVKASWVHKTGSTGGFGSYVAFIPEKQIGIVMLANTSYPNPARVEAAYHILEALQ | binds

Biological target: T1, carcinoembryonic antigen
Assay: CEA-coated plate assay on thermolysin-treated lysate, BLA/nitrocefin read-out

Row | Binder | binding result
3 | NA06.4 (scFv, Variant of the CAB1 scFv-BLA fusion built on NA05.6; Tested as crude lysate after thermolysin treatment; Positions are numbered along the whole CAB1 fusion (pME27)) QVKLQQSGAELVKSGGSVKLSCTASGFNIKDSYMHWVRQGPEQGLEWIGWIDPENGDTEYAPKFQGKATFTTDTSSNTAYLQLSSLTSEDTAVYYCNEGTPTGPYYFDYWGQGTTVTVSSGGGGSGGGGSGGGGSENVLTQSPAIVSASPGEKVTITCSASSSVSYMHWFQQKPGTSPKLVIYSTSNLASGVPARFSGSGSGTSYSLTISRMEAEDAATYYCQQRSSYPLTFGAGTKLELKRAATLVSEKQLAEVVANTITPLMKAQSVPGMAVAVIYQGKPHYYTFGKADIAANKPVTPQTLFELGSISKTFTGVLGGDAIARGEISLDDAVTRYWPQLTGKQWQGIRMLDLATYTAGGLPLQVPDEVTDNASLLRFYQNWQPQWKPGTTRLYANASIGLFGALAVKPSGMPYEQAMTTRVLKPLKLDHTWINVPKAEEAHYAWGYRDGKAVRVSPGMLDAQAYGVKTNVQDMANWVMANMAPENVADASLKQGIALAQSRYWRIGSMYQGLGWEMLNWPVEANTVVETSFGNVALAPLPVAEVNPPAPPVKASWVHKTGSTGGFGSYVAFIPEKQIGIVMLANTSYPNPARVEAAYHILEALQ | binds
4 | NA06.12 (scFv, Variant of the CAB1 scFv-BLA fusion built on NA05.6; Tested as crude lysate after thermolysin treatment; Positions are numbered along the whole CAB1 fusion (pME27)) QVKLQQSGAELVKSGGSVKLSCTASGFNIKDSYMHWVRQGPEQGLEWIGWIDPENGDTEYAPKFQGKATFTTDTSSNTAYLQLSSLTSEDTAVYYCNEGTPTGPYYFDYWGQGTTVTVSSGGGGSGGGGSGGGGSQNVLTQSPAIMSASPGEKVTITCSASSSVSYMHWFQQKPGTSPKLVIYSTSNLASGVPARFSGSGSGTSYSLTISRMEAEDAATYYCQQRSSYPLTFGAGTKLELKRAATLVSEKQLAEVVANTITPLMKAQSVPGMAVAVIYQGKPHYYTFGKADIAANKPVTPQTLFELGSISKTFTGVLGGDAIARGEISLDDAVTRYWPQLTGKQWQGIRMLDLATYTAGGLPLQVPDEVTDNASLLRFYQNWQPQWKPGTTRLYANASIGLFGALAVKPSGMPYEQAMTTRVLKPLKLDHTWINVPKAEEAHYAWGYRDGKAVRVSPGMLDAQAYGVKTNVQDMANWVMANMAPENVADASLKQGIALAQSRYWRIGSMYQGLGWEMLNWPVEANTVVETSFGNVALAPLPVAEVNPPAPPVKASWVHKTGSTGGFGSYVAFIPEKQIGIVMLANTSYPNPARVEAAYHILEALQ | binds
5 | NA06.11 (scFv, Variant of the CAB1 scFv-BLA fusion built on NA05.6; Tested as crude lysate after thermolysin treatment; Positions are numbered along the whole CAB1 fusion (pME27)) QVQLQQSGAELVKSGGSVKLSCTASGFNIKDSYMHWVRQGPEQGLEWIGWIDPENGDTEYAPKFQGKATFTTDTSSNTAYLQLSSLTSEDTAVYYCNEGTPTGPYYFDYWGQGTTVTVSSGGGGSGGGGSGGGGSENVLTQSPAIMSASPGEKVTITCSASSSVSYMHWFQQKPGTSPKLVIYSTSNLASGVPDRFSGSGSGTSYSLTISRMEAEDAATYYCQQRSSYPLTFGAGTKLELKRAATLVSEKQLAEVVANTITPLMKAQSVPGMAVAVIYQGKPHYYTFGKADIAANKPVTPQTLFELGSISKTFTGVLGGDAIARGEISLDDAVTRYWPQLTGKQWQGIRMLDLATYTAGGLPLQVPDEVTDNASLLRFYQNWQPQWKPGTTRLYANASIGLFGALAVKPSGMPYEQAMTTRVLKPLKLDHTWINVPKAEEAHYAWGYRDGKAVRVSPGMLDAQAYGVKTNVQDMANWVMANMAPENVADASLKQGIALAQSRYWRIGSMYQGLGWEMLNWPVEANTVVETSFGNVALAPLPVAEVNPPAPPVKASWVHKTGSTGGFGSYVAFIPEKQIGIVMLANTSYPNPARVEAAYHILEALQ | binds
6 | NA06.6 (scFv, Variant of the CAB1 scFv-BLA fusion built on NA05.6; Tested as crude lysate after thermolysin treatment; Positions are numbered along the whole CAB1 fusion (pME27)) QVQLQQSGAELVKSGGSVKLSCTASGFNIKDSYMHWVRQGPEQGLEWIGWIDPENGDTEYAPKFQGKATFTTDTSSNTAYLQLSSLTSEDTAVYYCNEGTPTGPYYFDYWGQGTTVTVSSGGGGSGGGGSGGGGSENVLTQSPAIVSASPGEKVTITCSASSSVSYMHWFQQKPGTSPKLVIYSTSNLASGVPARFSGSGSGTSYSLTISRMEAEDAATYYCQQRSSYPLTFGAGTKLELKRAATLVSEKQLAEVVANTITPLMKAQSVPGMAVAVIYQGKPHYYTFGKADIAANKPVTPQTLFELGSISKTFTGVLGGDAIARGEISLDDAVTRYWPQLTGKQWQGIRMLDLATYTAGGLPLQVPDEVTDNASLLRFYQNWQPQWKPGTTRLYANASIGLFGALAVKPSGMPYEQAMTTRVLKPLKLDHTWINVPKAEEAHYAWGYRDGKAVRVSPGMLDAQAYGVKTNVQDMANWVMANMAPENVADASLKQGIALAQSRYWRIGSMYQGLGWEMLNWPVEANTVVETSFGNVALAPLPVAEVNPPAPPVKASWVHKTGSTGGFGSYVAFIPEKQIGIVMLANTSYPNPARVEAAYHILEALQ | binds
7 | NA06.10 (scFv, Variant of the CAB1 scFv-BLA fusion built on NA05.6; Tested as crude lysate after thermolysin treatment; Positions are numbered along the whole CAB1 fusion (pME27)) QVKLQQSGAELVKSGGSVKLSCTASGFNIKDSYMHWVRQGPEQGLEWIGWIDPENGDTEYAPKFQGKATFTTDTSSNTAYLQLSSLTSEDTAVYYCNEGTPTGPYYFDYWGQGTTVTVSSGGGGSGGGGSGGGGSENVLTQSPAIVSASPGEKVTITCSASSSVSYMHWFQQKPGTSPKLVIYSTSNLASGVPDRFSGSGSGTSYSLTISRMEAEDAATYYCQQRSSYPLTFGAGTKLELKRAATLVSEKQLAEVVANTITPLMKAQSVPGMAVAVIYQGKPHYYTFGKADIAANKPVTPQTLFELGSISKTFTGVLGGDAIARGEISLDDAVTRYWPQLTGKQWQGIRMLDLATYTAGGLPLQVPDEVTDNASLLRFYQNWQPQWKPGTTRLYANASIGLFGALAVKPSGMPYEQAMTTRVLKPLKLDHTWINVPKAEEAHYAWGYRDGKAVRVSPGMLDAQAYGVKTNVQDMANWVMANMAPENVADASLKQGIALAQSRYWRIGSMYQGLGWEMLNWPVEANTVVETSFGNVALAPLPVAEVNPPAPPVKASWVHKTGSTGGFGSYVAFIPEKQIGIVMLANTSYPNPARVEAAYHILEALQ | binds
8 | NA06.2 (scFv, Variant of the CAB1 scFv-BLA fusion built on NA05.6; Tested as crude lysate after thermolysin treatment; Positions are numbered along the whole CAB1 fusion (pME27)) QVKLQQSGAELVKSGGSVKLSCTASGFNIKDSYMHWVRQGPGQGLEWIGWIDPENGDTEYAPKFQGKATFTTDTSSNTAYLQLSSLTSEDTAVYYCNEGTPTGPYYFDYWGQGTTVTVSSGGGGSGGGGSGGGGSENVLTQSPAIMSASPGEKVTITCSASSSVSYMHWFQQKPGTSPKLVIYSTSNLASGVPDRFSGSGSGTSYSLTISRMEAEDAATYYCQQRSSYPLTFGAGTKLELKRAATLVSEKQLAEVVANTITPLMKAQSVPGMAVAVIYQGKPHYYTFGKADIAANKPVTPQTLFELGSISKTFTGVLGGDAIARGEISLDDAVTRYWPQLTGKQWQGIRMLDLATYTAGGLPLQVPDEVTDNASLLRFYQNWQPQWKPGTTRLYANASIGLFGALAVKPSGMPYEQAMTTRVLKPLKLDHTWINVPKAEEAHYAWGYRDGKAVRVSPGMLDAQAYGVKTNVQDMANWVMANMAPENVADASLKQGIALAQSRYWRIGSMYQGLGWEMLNWPVEANTVVETSFGNVALAPLPVAEVNPPAPPVKASWVHKTGSTGGFGSYVAFIPEKQIGIVMLANTSYPNPARVEAAYHILEALQ | binds
